According to US20230416942A1 (YALE UNIVERSITY, published 2023):

T1: PROCR (human, UniProt Q9UNN8 18-210)
T1 construct: Recombinant human protein in ELISA and BLI
T1 sequence (looked up): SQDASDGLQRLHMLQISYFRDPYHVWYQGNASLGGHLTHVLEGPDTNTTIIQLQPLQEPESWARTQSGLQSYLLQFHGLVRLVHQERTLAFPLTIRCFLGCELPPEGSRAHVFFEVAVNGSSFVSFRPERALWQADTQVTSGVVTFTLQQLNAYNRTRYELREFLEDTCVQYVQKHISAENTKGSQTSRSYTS

T2: TNFRSF17 (recombinant human protein) (human, UniProt Q02223 1-54)
T2 construct: Recombinant human protein immobilized at 5 ug/mL for ELISA
T2 sequence (looked up): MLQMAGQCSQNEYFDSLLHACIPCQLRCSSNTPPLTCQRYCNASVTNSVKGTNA

T3: TNFSF18 (recombinant human protein) (human, UniProt Q9UNG2 52-177, limits assumed)
T3 construct: Recombinant human protein immobilized at 5 ug/mL for ELISA
T3 sequence (looked up): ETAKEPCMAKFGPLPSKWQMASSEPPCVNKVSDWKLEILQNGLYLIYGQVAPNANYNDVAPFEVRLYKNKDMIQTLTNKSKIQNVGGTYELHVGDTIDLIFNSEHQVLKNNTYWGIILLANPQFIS


molecular target: T4, CD3E (human, UniProt P07766 23-126); test: ELISA, plate-coated recombinant human protein, nanobody-Fc
T4 construct: Recombinant human protein in ELISA
Method: (§1) Recombinant human protein was diluted in PBS to a final concentration of 5 μg/mL and was immobilized on 96-well flat bottom MaxiSorp plates (Thermo Fisher Scientific) and placed at 4° C. overnight. Plates were washed three times with 225 μL ELISA wash buffer (PBS with 0.05% Tween 20) and 200 μL ELISA blocking buffer (PBS with 1% Casein) was added to the well. Plates were incubated with shaking for 2 hours at room temperature. ELISA blocking buffer was removed from the wells and appropriate dilutions of recombinant nanobodies in 100 μL ELISA blocking buffer was added to each well. Plates were incubated with shaking for 2 hours at room temperature. Plates were washed 3 times with 225 μL ELISA wash buffer and 1:5000 goat anti-human IgG HRP (Millipore Sigma) in 100 μL ELISA blocking buffer was added to the wells. Plates were incubated with shaking for 1 hour at room temperature. Plates were washed 6 times with 225 μL ELISA wash buffer. 50 μL TMB substrate (BD Biosciences) was added to the wells and plates were incubated for 15 minutes in the dark at room temperature. 50 μL 1 M sulfuric acid was added to the wells and absorbance at 450 nm was measured in a Synergy HTX Multi-Mode Microplate Reader (BioTek).

T4 sequence (P07766 23-126 limits assumed): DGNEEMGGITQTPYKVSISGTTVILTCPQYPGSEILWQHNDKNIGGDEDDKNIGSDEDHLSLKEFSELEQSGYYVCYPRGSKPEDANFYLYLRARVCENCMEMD

Binder	EC50 [nM]
CD3E_Nb2.73 (Fc fusion, Nanobody expressed and tested as Fc fusion (human IgG1); not shown: human IgG1 Fc (vector pCER243)) QVQLQESGGGLVQAGGSLRLSCAASGNISDITVMGWYRQAPGKEREFVAGINYGGSTNYADSVKGRFTISRDNAKNTVYLQMNSLKPEDTAVYYCAARYRYRYSAREFHDYWGQGTQVTVSS	0.735
CD3E_Nb2.79 (Fc fusion, Nanobody expressed and tested as Fc fusion (human IgG1); not shown: human IgG1 Fc (vector pCER243)) QVQLQESGGGLVQAGGSLRLSCAASGTISPWRVMGWYRQAPGKEREFVAGITPGTTTYYADSVKGRFTISRDNAKNTVYLQMNSLKPEDTAVYYCAVSAGASTPARYRLVYWGQGTQVTVSS	0.579
CD3E_Nb2.80 (Fc fusion, Nanobody expressed and tested as Fc fusion (human IgG1); not shown: human IgG1 Fc (vector pCER243)) QVQLQESGGGLVQAGGSLRLSCAASGNISRRYVMGWYRQAPGKEREFVAGISGGSSTYYADSVKGRFTISRDNAKNTVYLQMNSLKPEDTAVYYCAVLISGNTPNAISHYYWGQGTQVTVSS	17.9
CD3E_Nb2.77 (Fc fusion, Nanobody expressed and tested as Fc fusion (human IgG1); not shown: human IgG1 Fc (vector pCER243)) QVQLQESGGGLVQAGGSLRLSCAASGSISPVAVMGWYRQAPGKEREFVAAINYGANTYYADSVKGRFTISRDNAKNTVYLQMNSLKPEDTAVYYCAAATYAPYQRSGKLVYWGQGTQVTVSS	0.67
CD3E_Nb2.76 (Fc fusion, Nanobody expressed and tested as Fc fusion (human IgG1); not shown: human IgG1 Fc (vector pCER243)) QVQLQESGGGLVQAGGSLRLSCAASGNIFGNVVMGWYRQAPGKEREFVAGINNGGSTNYADSVKGRFTISRDNAKNTVYLQMNSLKPEDTAVYYCAVYYYYLTYHLYWGQGTQVTVSS	16.1

molecular target: T1, PROCR; test: as above
Method: as §1

Binder	EC50 [nM]
PROCR_Nb85 (Fc fusion, Nanobody expressed and tested as Fc fusion (human IgG1); not shown: human IgG1 Fc (vector pCER243)) QVQLQESGGGLVQAGGSLRLSCAASGNISVLVYMGWYRQAPGKERELVAAITTGTSTYYADSVKGRFTISRDNAKNTVYLQMNSLKPEDTAVYYCAADYYGPWYHQYWGQGTQVTVSS	0.352
PROCR_Nb90 (Fc fusion, Nanobody expressed and tested as Fc fusion (human IgG1); not shown: human IgG1 Fc (vector pCER243)) QVQLQESGGGLVQAGGSLRLSCAASGTISGGYNMGWYRQAPGKEREFVATIGDGSSTYYADSVKGRFTISRDNAKNTVYLQMNSLKPEDTAVYYCAAFNSAQYWYESPFRYWGQGTQVTVSS	1.74
PROCR_Nb89 (Fc fusion, Nanobody expressed and tested as Fc fusion (human IgG1); not shown: human IgG1 Fc (vector pCER243)) QVQLQESGGGLVQAGGSLRLSCAASGTIFRDDNMGWYRQAPGKEREFVAAIGYGSTTNYADSVKGRFTISRDNAKNTVYLQMNSLKPEDTAVYYCAVRNTYWNLLQYWGQGTQVTVSS	0.565
PROCR_Nb83 (Fc fusion, Nanobody expressed and tested as Fc fusion (human IgG1); not shown: human IgG1 Fc (vector pCER243)) QVQLQESGGGLVQAGGSLRLSCAASGNISPTRFMGWYRQAPGKEREFVAAIDLGTTTNYADSVKGRFTISRDNAKNTVYLQMNSLKPEDTAVYYCAADWNGPWSFWYWGQGTQVTVSS	1.27

molecular target: T2, TNFRSF17 (recombinant human protein); test: ELISA, recombinant human protein coated, nanobody-Fc titrated, anti-human IgG HRP
Method: as §1

Binder	EC50 [nM]
TNFRSF17_Nb2.20 (Fc fusion, Nanobody expressed as an Fc fusion protein (fused with human IgG1) in Expi293 cells; not shown: human IgG1 Fc; nanobodies expressed as Fc fusion from vector pCER243) QVQLQESGGGLVQAGGSLRLSCAASGTIFSDYMGWYRQAPGKEREFVATIAVGSITYYADSVKGRFTISRDNAKNTVYLQMNSLKPEDTAVYYCAVWDASWADYAYWGQGTQVTVSS	1.02

molecular target: T3, TNFSF18 (recombinant human protein); test: as above
Method: as §1

Binder	EC50 [nM]
TNFSF18_Nb101 (Fc fusion, Nanobody expressed as an Fc fusion protein (fused with human IgG1) in Expi293 cells; not shown: human IgG1 Fc; nanobodies expressed as Fc fusion from vector pCER243) QVQLQESGGGLVQAGGSLRLSCAASGYIFDDYGMGWYRQAPGKERELVATINAGANTNYADSVKGRFTISRDNAKNTVYLQMNSLKPEDTAVYYCAVYYGPYYRYLDPYLYWGQGTQVTVSS	22.6
TNFSF18_Nb93 (Fc fusion, Nanobody expressed as an Fc fusion protein (fused with human IgG1) in Expi293 cells; not shown: human IgG1 Fc; nanobodies expressed as Fc fusion from vector pCER243) QVQLQESGGGLVQAGGSLRLSCAASGNISDPPFMGWYRQAPGKERELVAGISWGASTYYADSVKGRFTISRDNAKNTVYLQMNSLKPEDTAVYYCAAVTTDFGAYPFAYWGQGTQVTVSS	1.59
